Data on five molecules can be found in publication PMC6624300, “Structure-based mechanism for activation of the AAA+ GTPase McrB by the endonuclease McrC” (Nature Communications, 2019).

The chains are these.
B1: McrC endonuclease (enzyme, Escherichia coli, UniProt P15006 1-348, looked up)
chain: MEQPVIPVRNIYYMLTYAWGYLQEIKQANLEAIPGNNLLDILGYVLNKGVLQLSRRGLELDYNPNTEIIPGIKGRIEFAKTIRGFHLNHGKTVSTFDMLNEDTLANRIIKSTLAILIKHEKLNSTIRDEARSLYRKLPGISTLHLTPQHFSYLNGGKNTRYYKFVISVCKFIVNNSIPGQNKGHYRFYDFERNEKEMSLLYQKFLYEFCRRELTSANTTRSYLKWDASSISDQSLNLLPRMETDITIRSSEKILIVDAKYYKSIFSRRMGTEKFHSQNLYQLMNYLWSLKPENGENIGGLLIYPHVDTAVKHRYKINGFDIGLCTVNLGQEWPCIHQELLDIFDEYLK
notes: McrC, endonuclease of the McrBC restriction system, Escherichia coli; Dimer in the complex; Chain N of PDB 6HZ4 holds only residues 193-343 of the second copy; source: E. coli BL21(AI), purified (Ni-NTA, MonoS)
B2: McrBΔN (McrB construct lacking the first 161 residues; AAA+ domain of McrB) (domain or fragment, Escherichia coli, UniProt P15005 162-459, looked up)
chain: MSKTESYCLEDALNDLFIPETTIETILKRLTIKKNIILQGPPGVGKTFVARRLAYLLTGEKAPQRVNMVQFHQSYSYEDFIQGYRPNGVGFRRKDGIFYNFCQQAKEQPEKKYIFIIDEINRANLSKVFGEVMMLMEHDKRGENWSVPLTYSENDEERFYVPENVYIIGLMNTADRSLAVVDYALRRRFSFIDIEPGFDTPQFRNFLLNKKAEPSFVESLCQKMNELNQEISKEATILGKGFRIGHSYFCCGLEDGTSPDTQWLNEIVMTDIAPLLEEYFFDDPYKQQKWTNKLLGDS
notes: McrB, AAA+ GTPase of the McrBC restriction system, Escherichia coli; Forms a hexameric ring in the structure; two rings per tetradecamer; also called McrB∆N; source: E. coli BL21(AI), purified (Ni-NTA, MonoQ, Superdex200)

One series addresses MantGMPPNP (GNP). The experiment in a line: Mant-nucleotide fluorescence time trace (MantGMPPNP + buffer, then protein added). Conditions: protein added at about 160 s, signal before protein est. 26000, parent: est. 40000.
Series [1] concerns the molecule itself. The series can be described thus: cryo-EM structure; McrBΔN and McrC mixed 4:1 with GTP and MgCl2, complex purified by SEC; grids with 4.0 mg/ml McrBΔNC in 10 mM Tris-HCl pH 7.4, 2.0 mM GNP, 0.10 M NaCl, 5.0 mM MgCl2. For orientation: In gel filtration, larger molecules generally elute earlier.
The target in the series “McrC endonuclease” is B1. The series is described as above. Conditions: both partners purified.
[2] abbreviates: value is the mean of the trace after addition, read off a plot.

On to “McrB (wild type) (from UniProt P15005) R349A”, for which the response with MantGMPPNP (GNP) (trace hidden under R348A, which the legend says it overlaps, read off a …) came out at 28000 CPS/µAmps.

As for “McrB (wild type) (from UniProt P15005) E298A”, the response in the series with MantGMPPNP (GNP) (setting [2]) turned out to be 39000 CPS/µAmps.

As to “McrB (wild type) (from UniProt P15005) R348A”, the response with MantGMPPNP (GNP) (setting [2]) stood at 28000 CPS/µAmps.

As a reminder, the stoichiometry N is the number of molecules, sites or subunits per partner or assembly. Take B1: the “stoichiometry N” value in series [1] was determined as 2.

For B2, in the series with McrC endonuclease, the binding result was “binds”.
